Measured values as given in publication PMC2132615 (The Journal of Cell Biology, 1997).

Molecular target: the molecule itself

B1: CBF3 p110 (p110^NDC10) (natural protein)
chain: MRSSILFLLKLMKIMDVQQQQEAMSSEDRFQELVDSLKPRTAHQYKTYYTKYIQWCQLNQIIPTPEDNSVNSVPYKDLPISAELIHWFLLDTLITDDKPGEKREETEDLDEEEENSFKIATLKKIIGSLNFLSKLCKVHENPNANIDTKYLESVTKLHTHWIDSQKAITTNETNNTNTQVLCPPLLKVSLNLWNPETNHLSEKFFKTCSEKLRFLVDFQLRSYLNLSFEERSKIRFGSLKLGKRDRDAIIYHKVTHSAEKKDTPGHHQLLALLPQDCPFICPQTTLAAYLYLRFYGIPSVSKGDGFPNLNADENGSLLQDIPILRGKSLTTYPREETFSNYYTTVFRYCHLPYKRREYFNKCNLVYPTWDEDTFRTFFNEENHGNWLEQPEAFAFPDKIPFDFKKIMNFKSPYTSYSTNAKKDPFPPPKDLLVQIFPEIDEYKRHDYEGLSQNSRDFLDLMEVLRERFLSNLPWIYKFFPNHDIFQDPIFGNSDFQSYFNDKTIHSKGSPILSFDILPGFNKIYKNKTNFYSLLIERPSQLTFASSHNPDTHPTQKQESEGPLQMSQLDTTQLNELLKQQSFEYVQFQTLSNFQILLSVFNKIFEKLEMKKSSRGYILHQLNLFKITLDERIKKSKIDDADKFIRDNQPIKKEENIVNEDGPNTSRRTKRPKQIRLLSIADSSDESSTEDSNVFKKDGESIEDGAYGENEDENDSEMQEQLKSMINELINSKISTFLRDQMDQFELKINALLDKILEEKVTRIIEQKLGSHTGKFSTLKRPQLYMTEEHNVGFDMEVPKKLRTSGKYAETVKDNDDHQAMSTTASPSPEQDQEAKSYTDEQEFMLDKSIDSIEGIILEWFTPNAKYANQCVHSMNKSGNKSWRANCEALYKERKSIVEFYIYLVNHESLDRYKAVDICEKLRDQNEGSFSRLAKFLRKWRHDHQNSFDGLLVYLSN
Question: B1 was tested. Which “stoichiometry N” value did it give?
Answer: Its value is 2.
